Experimental data as given in publication PMC11417362, “Template-independent synthesis and 3′-end labelling of 2′-modified oligonucleotides with terminal deoxynucleotidyl transferases” (Nucleic Acids Research, 2024).

What was measured:
[1] = substrate: O=c1ccn([C@@H]2O[C@H](COP(=O)(O)OP(=O)(O)OP(=O)(O)O)[C@@H](O)[C@@H]2F)c(=O)[nH]1; assay: steady-state primer extension, denaturing PAGE, Michaelis-Menten fit; type: biochemical, Bos taurus; settings: 100 nM ssDNA primer FAM-18G, 10 mM Mg(OAc)2, 1x TdT buffer (100 mM KCl, 30 mM Tris-acetate, 0.05% Triton X-100), pH 7.5, 37°C
Excerpt: (§1) steady-state primer extension, denaturing PAGE, Michaelis-Menten fit on bovine TdT

[2] = substrate: Nc1ncnc2c1ncn2[C@@H]1O[C@H](COP(=O)(O)OP(=O)(O)OP(=O)(O)O)[C@@H](O)[C@H]1F; assay: as above; type: biochemical, Bos taurus; settings: 100 nM ssDNA primer FAM-18G, 10 mM Mg(OAc)2, 1x TdT buffer (100 mM KCl, 30 mM Tris-acetate, 0.05% Triton X-100), pH 7.5, 37°C
Excerpt: as §1

[3] = substrate: Nc1nc2c(ncn2[C@@H]2O[C@H](COP(=O)(O)OP(=O)(O)OP(=O)(O)O)[C@@H](O)[C@@H]2F)c(=O)[nH]1; assay: as above; type: biochemical, Bos taurus; settings: 100 nM ssDNA primer FAM-18G, 10 mM Mg(OAc)2, 1x TdT buffer (100 mM KCl, 30 mM Tris-acetate, 0.05% Triton X-100), pH 7.5, 37°C
Excerpt: as §1

[4] = substrate: Nc1ncnc2c1ncn2[C@@H]1O[C@H](COP(=O)(O)OP(=O)(O)OP(=O)(O)O)[C@@H](O)[C@@H]1F; assay: as above; type: biochemical, Bos taurus; settings: 100 nM ssDNA primer FAM-18G, 10 mM Mg(OAc)2, 1x TdT buffer (100 mM KCl, 30 mM Tris-acetate, 0.05% Triton X-100), pH 7.5, 37°C
Excerpt: as §1

[5] = substrate: Nc1ccn([C@@H]2O[C@H](COP(=O)(O)OP(=O)(O)OP(=O)(O)O)[C@@H](O)[C@@H]2F)c(=O)n1; assay: as above; type: biochemical, Bos taurus; settings: 100 nM ssDNA primer FAM-18G, 10 mM Mg(OAc)2, 1x TdT buffer (100 mM KCl, 30 mM Tris-acetate, 0.05% Triton X-100), pH 7.5, 37°C
Excerpt: as §1

[6] = substrate: Nc1nc2c(ncn2[C@@H]2O[C@H](COP(=O)(O)OP(=O)(O)OP(=O)(O)O)[C@@H](O)[C@H]2F)c(=O)[nH]1; assay: as above; type: biochemical, Bos taurus; settings: 100 nM ssDNA primer FAM-18G, 10 mM Mg(OAc)2, 1x TdT buffer (100 mM KCl, 30 mM Tris-acetate, 0.05% Triton X-100), pH 7.5, 37°C
Excerpt: as §1

[7] = substrate: Nc1ccn([C@H]2C[C@H](O)[C@@H](COP(=O)(O)OP(=O)(O)OP(=O)(O)O)O2)c(=O)n1; assay: as above; type: biochemical, Bos taurus; settings: 100 nM ssDNA primer FAM-18G, 10 mM Mg(OAc)2, 1x TdT buffer (100 mM KCl, 30 mM Tris-acetate, 0.05% Triton X-100), pH 7.5, 37°C
Excerpt: as §1

[8] = substrate: CO[C@@H]1[C@H](O)[C@@H](COP(=O)(O)OP(=O)(O)OP(=O)(O)O)O[C@H]1n1cnc2c(=O)[nH]c(N)nc21; assay: purified protein, by the assay type; set-up: Steady-state single-nucleotide incorporation into primer FAM-18G, denaturing PAGE band quantification, Michaelis-Menten fit
Method: (§2) The steady-state kinetic experiments were performed as described previously with minor modifications ([61]). A 2× reaction solution was prepared by mixing 200 nM primer FAM-18G, 0–128 μM 2′-modified NTP and 20 mM Mg(OAc)2 in 2× TdT buffer. A 5 μl aliquot of pre-warmed 2× reaction solution was mixed with 5 μl of bovine TdT, MTdT-evo or murine TdT of varying concentration, and incubated at 37°C for a certain time. The reaction was then quenched by the addition of 10 μl of 2× TBE-urea sample buffer and incubation at 95°C for 10 min. The products were analysed with 20% denaturing PAGE gels containing 8 M urea. All gel bands were quantified using Quantity One analysis software (Bio-Rad). Km and kcat values were calculated by fitting the data to the Michaelis–Menten equation with GraphPad Prism 8 software. To quantify the activities of different TdTs for the incorporation of 2′-modified NTPs, steady-state kinetic experiments were carried out.

[9] = substrate: CO[C@@H]1[C@H](O)[C@@H](COP(=O)(O)OP(=O)(O)OP(=O)(O)O)O[C@H]1n1ccc(N)nc1=O; assay: purified protein, by the assay type; set-up: Steady-state single-nucleotide incorporation into primer FAM-18G, denaturing PAGE band quantification, Michaelis-Menten fit
Method: as §2

[10] = substrate: O=c1ccn([C@@H]2O[C@H](COP(=O)(O)OP(=O)(O)OP(=O)(O)O)[C@@H](O)[C@H]2F)c(=O)[nH]1; assay: purified protein, by the assay type; set-up: Steady-state single-nucleotide incorporation into primer FAM-18G, denaturing PAGE band quantification, Michaelis-Menten fit
Method: as §2

[11] = substrate: Cc1cn([C@H]2C[C@H](O)[C@@H](COP(=O)(O)OP(=O)(O)OP(=O)(O)O)O2)c(=O)[nH]c1=O; assay: purified protein, by the assay type; set-up: Steady-state single-nucleotide incorporation into primer FAM-18G, denaturing PAGE band quantification, Michaelis-Menten fit
Method: as §2

purified protein = substrate: Nc1ncnc2c1ncn2[C@H]1C[C@H](O)[C@@H](COP(=O)(O)OP(=O)(O)OP(=O)(O)O)O1; assay: purified protein; settings: 100 nM ssDNA primer FAM-18G, 10 mM Mg(OAc)2, 1x TdT buffer (100 mM KCl, 30 mM Tris-acetate, 0.05% Triton X-100), pH 7.5, 37°C

B1: bovine TdT (Bos taurus) (protein)
chain: MDPLCTASSGPRKKRPRQVGASMASPPHDIKFQNLVLFILEKKMGTTRRNFLMELARRKGFRVENELSDSVTHIVAENNSGSEVLEWLQVQNIRASSQLELLDVSWLIESMGAGKPVEITGKHQLVVRTDYSATPNPGFQKTPPLAVKKISQYACQRKTTLNNYNHIFTDAFEILAENSEFKENEVSYVTFMRAASVLKSLPFTIISMKDTEGIPCLGDKVKCIIEEIIEDGESSEVKAVLNDERYQSFKLFTSVFGVGLKTSEKWFRMGFRSLSKIMSDKTLKFTKMQKAGFLYYEDLVSCVTRAEAEAVGVLVKEAVWAFLPDAFVTMTGGFRRGKKIGHDVDFLITSPGSAEDEEQLLPKVINLWEKKGLLLYYDLVESTFEKFKLPSRQVDTLDHFQKCFLILKLHHQRVDSSKSNQQEGKTWKAIRVDLVMCPYENRAFALLGWTGSRQFERDIRRYATHERKMMLDNHALYDKTKRVFLKAESEEEIFAHLGLDYIEPWERNA
notes: recombinant, plasmid pET30a-bovine TdT, E. coli BL21(DE3)
Km [1]: 2.63 ± 0.77 µM
kcat [1]: 0.0148 ± 0.00065 s⁻¹
kcat/Km [1]: 5630 M⁻¹ s⁻¹
Km [2]: 0.97 ± 0.27 µM
kcat [2]: 0.00933 ± 0.0011 s⁻¹
kcat/Km [2]: 9620 M⁻¹ s⁻¹
Km [3]: 2.91 ± 0.52 µM
kcat [3]: 0.0638 ± 0.00417 s⁻¹
kcat/Km [3]: 22000 M⁻¹ s⁻¹
Km [4]: 2.23 ± 0.32 µM
kcat [4]: 0.0443 ± 0.00717 s⁻¹
kcat/Km [4]: 19800 M⁻¹ s⁻¹
Km [5]: 2.83 ± 0.69 µM
kcat [5]: 0.0285 ± 0.00317 s⁻¹
kcat/Km [5]: 10100 M⁻¹ s⁻¹
Km [6]: 4.03 ± 0.52 µM
kcat [6]: 0.0182 ± 0.000483 s⁻¹
kcat/Km [6]: 4500 M⁻¹ s⁻¹
Km [7]: 3.14 ± 0.46 µM
kcat [7]: 0.02 ± 0.001 s⁻¹
kcat/Km [7]: 6370 M⁻¹ s⁻¹
Km [8]: 6.10 ± 1.50 µM
kcat [8]: 0.000683 ± 2.17e-05 s⁻¹
kcat/Km [8]: 112 M⁻¹ s⁻¹
Km [9]: 5.87 ± 0.76 µM
kcat [9]: 0.0004 ± 5.83e-05 s⁻¹
kcat/Km [9]: 68.2 M⁻¹ s⁻¹
Km [10]: 5.33 ± 1.58 µM
kcat [10]: 0.00267 ± 0.000112 s⁻¹
kcat/Km [10]: 500 M⁻¹ s⁻¹
Km [11]: 4.19 ± 0.91 µM
kcat [11]: 0.0075 ± 0.000833 s⁻¹
kcat/Km [11]: 1780 M⁻¹ s⁻¹
Km (purified protein): 2.65 ± 0.76 µM
kcat (purified protein): 0.00517 s⁻¹
kcat/Km (purified protein): 1950 M⁻¹ s⁻¹
